Source: US20230248855A1 (ACTINIUM PHARMACEUTICALS, published 2023)

Target: T1, human recombinant HER3 (human, UniProt P21860 20-643)
T1 construct: Plate-coated recombinant protein in the ELISA
Test: ELISA, plate coated with human recombinant HER3, anti-human IgG F(ab')2-HRP detection
Description: A secondary antibody (Goat Anti-human IgG F(ab′)20-HRP) was added and incubated for 30 min on ice followed by color development using […] for 10 min.

T1 sequence (P21860 20-643 limits assumed): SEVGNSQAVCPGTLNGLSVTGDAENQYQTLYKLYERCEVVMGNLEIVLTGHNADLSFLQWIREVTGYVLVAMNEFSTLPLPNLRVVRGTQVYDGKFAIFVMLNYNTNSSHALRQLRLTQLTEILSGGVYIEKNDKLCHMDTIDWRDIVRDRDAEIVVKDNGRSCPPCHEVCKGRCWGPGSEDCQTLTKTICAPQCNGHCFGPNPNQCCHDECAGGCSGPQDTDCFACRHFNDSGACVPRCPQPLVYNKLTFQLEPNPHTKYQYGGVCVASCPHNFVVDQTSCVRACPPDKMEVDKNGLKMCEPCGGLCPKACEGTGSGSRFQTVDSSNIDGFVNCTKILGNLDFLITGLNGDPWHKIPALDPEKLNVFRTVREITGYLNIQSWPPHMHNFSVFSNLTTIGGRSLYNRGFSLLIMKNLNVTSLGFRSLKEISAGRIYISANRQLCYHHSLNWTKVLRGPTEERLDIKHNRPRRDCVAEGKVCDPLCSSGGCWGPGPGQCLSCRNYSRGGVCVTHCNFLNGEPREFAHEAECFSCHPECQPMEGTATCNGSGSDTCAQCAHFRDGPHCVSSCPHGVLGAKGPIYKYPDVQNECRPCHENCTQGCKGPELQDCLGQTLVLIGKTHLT

| EC50 [ng/mL] | Binder |
| --- | --- |
| 1.7 | 225Ac-HER3-ARC (Ac225 labeled DOTA-conjugated anti-HER3 monoclonal antibody) (antibody, human IgG1, kappa, V domains shown, DOTA chelator conjugated using p-SCN-Bn-DOTA and chelating Actinium-225; sites and chain not stated) VH: QVQLVESGGGLVKPGGSLRLSCAASGFTFSDYAMSWIRQAPGKGLEWVSTISDGGTYTYYPDSVKGRFTISRDNAKNSLYLQMNSLRAEDTAVYYCAREWGDYDGFDYWGQGTLVTVSS VL: DIQMTQSPSSLSASVGDRVTITCRASQEISGYLSWYQQKPGKAPKRLIYAASTLDSGVPSRFSGSGSGTEFTLTISSLQPEDFATYYCLQYDSYPYTFGQGTKLEIKR |
| 2.2 | anti-HER3 IgG monoclonal antibody consisting of heavy chain SEQ ID NO:77 and light chain SEQ ID NO:78 (unmodified) (antibody, V domains shown, IgG, detected with an anti-human IgG secondary antibody; also called unmodified anti-HER3 antibody; unmodified anti-HER3 mAb) VH: QVQLVESGGGLVKPGGSLRLSCAASGFTFSDYAMSWIRQAPGKGLEWVSTISDGGTYTYYPDSVKGRFTISRDNAKNSLYLQMNSLRAEDTAVYYCAREWGDYDGFDYWGQGTLVTVSS VL: DIQMTQSPSSLSASVGDRVTITCRASQEISGYLSWYQQKPGKAPKRLIYAASTLDSGVPSRFSGSGSGTEFTLTISSLQPEDFATYYCLQYDSYPYTFGQGTKLEIKR |
